Experimental data from paper PMC8225741, “Tumor-derived neomorphic mutations in ASXL1 impairs the BAP1-ASXL1-FOXK1/K2 transcription network” (Protein & Cell, 2020).

Target: T1, SBP-tagged ASXL1^450–1,300 (human, UniProt Q8IXJ9 450-1300)
T1 construct: ASXL1, human, residues 450–1,300; cDNAs encoding SBP and ASXL1 450-1,300 cloned into pRK7-N-Flag; also called ASXL1 (residues 450–1,300); ASXL^450–1,300; source: HEK293T, overexpressed, immobilized to Streptavidin beads
T1 sequence (looked up): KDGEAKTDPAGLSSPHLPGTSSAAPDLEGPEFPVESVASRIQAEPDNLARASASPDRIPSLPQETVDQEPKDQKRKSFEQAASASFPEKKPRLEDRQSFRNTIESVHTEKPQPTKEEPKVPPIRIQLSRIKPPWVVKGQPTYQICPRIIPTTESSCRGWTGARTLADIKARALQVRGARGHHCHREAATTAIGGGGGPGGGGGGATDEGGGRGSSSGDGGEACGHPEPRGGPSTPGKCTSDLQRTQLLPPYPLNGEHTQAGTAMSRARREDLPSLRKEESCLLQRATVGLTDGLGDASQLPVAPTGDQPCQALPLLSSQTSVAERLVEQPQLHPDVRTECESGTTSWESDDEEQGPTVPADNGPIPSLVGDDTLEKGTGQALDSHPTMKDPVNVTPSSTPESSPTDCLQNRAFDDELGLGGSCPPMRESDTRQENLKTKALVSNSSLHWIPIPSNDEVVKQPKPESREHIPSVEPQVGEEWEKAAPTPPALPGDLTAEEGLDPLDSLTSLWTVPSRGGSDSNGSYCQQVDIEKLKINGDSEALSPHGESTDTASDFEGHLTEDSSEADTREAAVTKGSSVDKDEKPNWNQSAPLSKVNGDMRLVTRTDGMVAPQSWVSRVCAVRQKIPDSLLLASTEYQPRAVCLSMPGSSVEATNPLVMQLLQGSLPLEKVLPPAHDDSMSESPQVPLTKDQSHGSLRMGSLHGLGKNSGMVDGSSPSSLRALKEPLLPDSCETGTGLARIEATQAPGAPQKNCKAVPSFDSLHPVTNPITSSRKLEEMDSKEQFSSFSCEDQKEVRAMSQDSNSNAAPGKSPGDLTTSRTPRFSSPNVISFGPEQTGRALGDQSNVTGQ
Experiment: pull-down; SBP-tagged ASXL1^450–1,300 immobilized to Streptavidin beads, incubated with Flag-peptide-eluted FOXK1 at 4 °C for 3 h, washed 3 times, SDS-PAGE and Coomassie blue staining
Details: both partners purified

B1: Flag-tagged full-length FOXK1 protein (natural protein, human, UniProt P85037 1-733, looked up)
chain: MAEVGEDSGARALLALRSAPCSPVLCAAAAAAAFPAAAPPPAPAQPQPPPGPPPPPPPPLPPGAIAGAGSSGGSSGVSGDSAVAGAAPALVAAAAASVRQSPGPALARLEGREFEFLMRQPSVTIGRNSSQGSVDLSMGLSSFISRRHLQLSFQEPHFYLRCLGKNGVFVDGAFQRRGAPALQLPKQCTFRFPSTAIKIQFTSLYHKEEAPASPLRPLYPQISPLKIHIPEPDLRSMVSPVPSPTGTISVPNSCPASPRGAGSSSYRFVQNVTSDLQLAAEFAAKAASEQQADTSGGDSPKDESKPPFSYAQLIVQAISSAQDRQLTLSGIYAHITKHYPYYRTADKGWQNSIRHNLSLNRYFIKVPRSQEEPGKGSFWRIDPASEAKLVEQAFRKRRQRGVSCFRTPFGPLSSRSAPASPTHPGLMSPRSGGLQTPECLSREGSPIPHDPEFGSKLASVPEYRYSQSAPGSPVSAQPVIMAVPPRPSSLVAKPVAYMPASIVTSQQPAGHAIHVVQQAPTVTMVRVVTTSANSANGYILTSQGAAGGSHDAAGAAVLDLGSEARGLEEKPTIAFATIPAAGGVIQTVASQMAPGVPGHTVTILQPATPVTLGQHHLPVRAVTQNGKHAVPTNSLAGNAYALTSPLQLLATQASSSAPVVVTRVCEVGPKEPAAAVAATATTTPATATTASASASSTGEPEVKRSRVEEPSGAVTTPAGVIAAAGPQGPGTGE
notes: FOXK1, human, full-length cDNA; Vector pRK7-N-Flag; source: HEK293T, overexpressed, purified by immunoprecipitation and eluted by Flag peptide; not shown: Flag, N-terminal, kept
binding result: binds
